Test results reported in the supplement of paper PMC12042874.
± gives the uncertainty stated by the source.

Assay: amyloid nucleation score (Sup35N fusion, yeast selection) (log enrichment); library NNK2; higher = more nucleation; inactive = no reads after selection
Method in brief: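 Plasmid inserts were Illumina-sequenced at input and output from psi-negative yeast expressing Sup35N fused to peptides of 20 random codons. The yeast were induced with 100 μM copper sulfate for 24 hours and grown 7 days at 30°C on medium lacking adenine and uracil, and sequences with under 100 input reads were excluded. Nucleation score is the DiMSum log enrichment of output over input reads, centred on the mode score of non-aggregating sequences.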

Going from ISWAVKMHDIPV to LDCIS, the amyloid nucleation score falls from 0.97 ± 0.58 to -0.647 ± 0.55.

Going from THTGLGG to LCLEAWERRCI, the amyloid nucleation score falls from 0.654 ± 0.8 to -0.588 ± 0.17.

Going from YHVVVMRSVYTVLTYNRVGA to FINVLDSNLAQLWLLFTSWR, the amyloid nucleation score rises from 0.334 ± 0.65 to 1.51 ± 0.14.

KHLMMDCAKRMQLRNIRDES and LRWVKKRTAAQN are within error of each other in amyloid nucleation score: 0.216 ± 0.2 for the first, -0.023 ± 0.63 for the second.

GLSRFA and GMGSVCGIIEYAWTA are within error of each other in amyloid nucleation score: -0.582 ± 1.1 for the first, 0.627 ± 0.3 for the second.

QVFRFSYKCPCHAVG and RGSGKCYRAGFMIAIVTHPL are within error of each other in amyloid nucleation score: 1.75 ± 0.15 for the first, 1.5 ± 0.41 for the second.

Going from IFWYRCNINSGCEQVVYWGN to SIVNFWNMIVE, the amyloid nucleation score falls from 5.311 ± 0.033 to 3.32 ± 0.15.

IFVLVS and LRCFSHRPCPKNNIVF are within error of each other in amyloid nucleation score: 0.131 ± 0.38 for the first, 0.602 ± 0.81 for the second.

CRLCWE and CMSAIFLPMIEF are within error of each other in amyloid nucleation score: -0.459 ± 0.61 for the first, -0.714 ± 0.44 for the second.

Going from GNLDRYRYLETDKSGAMLGV to VNYHLFVYAQWIVRKGFILL, the amyloid nucleation score falls from 4.3 ± 0.064 to -0.78 ± 0.44.

Going from CHLKFNANVKWLGSLGKLEY to VVNSGICSYRCFTVGQVTYK, the amyloid nucleation score falls from 4.74 ± 0.069 to -0.553 ± 0.55.

Going from TNDHQFCESNMRVMSEGIGP to LINFSFSDTAVFYVREGWEH, the amyloid nucleation score rises from -0.284 ± 1.1 to 6.846 ± 0.039.

First: NTQVTQVILYLRPWV
Second: VLVIGSIVYVCLSKDCCFNV
The amyloid nucleation score of the first is lower: 9.151 ± 0.038 for the first, 9.543 ± 0.04 for the second.

First: RSLIFLNWGYSV
Second: NLRNKIVGLTKGLVCRANVV
The amyloid nucleation score of the first is higher: 3.59 ± 0.056 for the first, 2.34 ± 0.091 for the second.

Compared with SLGHDSICWRWSLE, ATRGHIWDCSFGADYQCIPS is higher in amyloid nucleation score: 5.49 ± 0.094 for the first, 5.97 ± 0.063 for the second.

Going from YVVKWPCGLTPCALPTPIRQ to TFVHIIHNFVGVQHFKKLGC, the amyloid nucleation score rises from 0.969 ± 0.21 to 5 ± 0.094.

First: SFGTFSCLYSVYNI
Second: TRASYFCQSTANYSVSRSNM
The amyloid nucleation score of the first is higher: 2.84 ± 0.086 for the first, 1.8 ± 0.3 for the second.

Compared with SCLTNGY, VKFCIMSGSTKTINNYSQAR is higher in amyloid nucleation score: -0.154 ± 0.38 for the first, 5.57 ± 0.09 for the second.

VKPMMTFIATYGRYNHQFLS and DDIFNWFGVLGSNPLMVSVG are within error of each other in amyloid nucleation score: 0.861 ± 0.43 for the first, 0.811 ± 0.33 for the second.

EFCMEDQSMSLLWDYY and LDKAIHSWGVLDWAVKQDNA are within error of each other in amyloid nucleation score: -0.183 ± 1 for the first, 0.293 ± 0.26 for the second.

SWWIVFWGHTTTRWNCSLGD and VASGDSVLPKDIVFFSSIQG are within error of each other in amyloid nucleation score: -0.831 ± 0.35 for the first, -0.653 ± 0.29 for the second.

HRSYCGFICASVLSAGPVHR and KHCQLLSVSAECDRPGLWKE are within error of each other in amyloid nucleation score: -0.31 ± 1.1 for the first, 0.75 ± 0.17 for the second.

Compared with CNRVHYFFCFSCLWMFVFID, LLRMKTFDHWYRAREGFAYC is higher in amyloid nucleation score: -2.07 ± 1.1 for the first, -0.512 ± 0.3 for the second.

SSTWLGLS and LAFYSFIRYTRLSIEMVAIS are within error of each other in amyloid nucleation score: 0.112 ± 1.1 for the first, -0.741 ± 0.31 for the second.

Going from LAKRGCVIVCFLTFHYTIRR to WLYCVVTS, the amyloid nucleation score rises from -0.348 ± 0.28 to 1.63 ± 0.42.

VPGSMLLCIVQALKHANMAG and YGHFWDFGVPIASSISYKKG are within error of each other in amyloid nucleation score: 0.417 ± 0.24 for the first, -0.029 ± 0.79 for the second.

Compared with LYSCWVSCLEGRLVCGPLTH, MISVVRKPPLIISVIRSRWD is higher in amyloid nucleation score: -0.65 ± 0.39 for the first, 0.687 ± 0.47 for the second.

Compared with THYNVGLINNIINNLILVYI, SRFCVRRLTVYRRSV is lower in amyloid nucleation score: 4.52 ± 0.12 for the first, 0.43 ± 0.45 for the second.

VYVIFPPLSTSLPVSMSYNL and HVWLDLTYGNILQNRNCLTW are within error of each other in amyloid nucleation score: -0.548 ± 1.1 for the first, -0.335 ± 0.25 for the second.

Compared with CGRTDNWGNDRNASRRHGGL, TYCFLGFQNIPSMLNPMNFG is higher in amyloid nucleation score: 0.694 ± 0.24 for the first, 2.98 ± 0.046 for the second.

CSSWRAYWNSGLQFLVIFGV and FTLALSYITRTKSTHAC are within error of each other in amyloid nucleation score: -0.737 ± 0.32 for the first, -0.27 ± 1.1 for the second.

SYAESLPLSDYNAVVRFPWT and QNCQFGMH are within error of each other in amyloid nucleation score: -0.304 ± 1.1 for the first, 0.88 ± 0.48 for the second.

YRYCSCMNLAWERFGNPEGQ and AIKESRCDIVIRRKWSSLKT are within error of each other in amyloid nucleation score: -0.399 ± 0.46 for the first, -0.02 ± 1.1 for the second.

MSFNGCFDRMRREDRYEI and GQWGETY are within error of each other in amyloid nucleation score: 0.16 ± 0.65 for the first, 0.476 ± 0.25 for the second.

MFVGGGSSSTWLGNVWYVGS and LVRNPAQMSFRPIVHSVCYL are within error of each other in amyloid nucleation score: -0.337 ± 1.1 for the first, 0.724 ± 0.16 for the second.

Compared with IAVRMALGLENNKFFLIVHK, PRRSNTCWNSCISEMIGIRS is higher in amyloid nucleation score: -1.44 ± 0.55 for the first, 0.664 ± 0.51 for the second.

First: NNNCGRLGVYI
Second: MGDSTIEVTLPVG
The amyloid nucleation score of the first is lower: -0.962 ± 1 for the first, 0.987 ± 0.39 for the second.

First: CCYQVSYCIVSVIDSVEYGP
Second: EGNYFSGIS
The amyloid nucleation score of the first is higher: 6.991 ± 0.033 for the first, -1.2 ± 0.48 for the second.

MYDFLVKGRGVCVNLGNSTW and ESIYLVGICGSSG are within error of each other in amyloid nucleation score: -1.21 ± 0.48 for the first, 0.247 ± 1 for the second.

First: YEGPWQLIVVSTISVFTNSC
Second: RHTSNTIIDELFLDSMGWHN
The amyloid nucleation score of the first is lower: -0.156 ± 0.38 for the first, 9.016 ± 0.05 for the second.

SVTVTSLWHGTEL and YHGYLPD are within error of each other in amyloid nucleation score: -0.22 ± 1.1 for the first, -0.826 ± 0.63 for the second.

ACDVNWLMNTIHQNNCCFAH and TGWSGRGMVKSDPYRACGGD are within error of each other in amyloid nucleation score: -0.716 ± 1.1 for the first, -0.11 ± 0.35 for the second.

RLMQSVMCRRDLLL and LSHLFSV are within error of each other in amyloid nucleation score: 0.883 ± 0.47 for the first, -0.381 ± 1.1 for the second.

VMLHPSNSLALNCLT and FVIVNN are within error of each other in amyloid nucleation score: -0.297 ± 0.28 for the first, -0.658 ± 1 for the second.

Going from GTLPA to RVISFIYWSVTGDSDCLLWC, the amyloid nucleation score rises from -0.747 ± 0.48 to 4.24 ± 0.067.

Going from YMLINAMVTFFMHGVDRKRR to LLGGHYP, the amyloid nucleation score falls from 5.516 ± 0.055 to 0.844 ± 0.52.

SFRTAHSAPEVGMLEVYMNL and LAYCGYIHDLFGGILIKLDG are within error of each other in amyloid nucleation score: 0.334 ± 0.5 for the first, -0.081 ± 1.1 for the second.

Compared with VSFTARSRHVDGGLSS, YILRMLLRVLSVCVCSLQRS is lower in amyloid nucleation score: 1.04 ± 0.32 for the first, -0.091 ± 0.79 for the second.

Compared with YWSVV, TFTSRGMMSLGFGRR is higher in amyloid nucleation score: 3.73 ± 0.11 for the first, 6.01 ± 0.08 for the second.

DCYSQPMLRVLDSVAHSVWF and GSDFQFRSSATVLSAVEFLL are within error of each other in amyloid nucleation score: 0.369 ± 0.43 for the first, -0.227 ± 0.35 for the second.

Going from RMVSPSPMAQNKLGYATTLG to FEFTTCQGDRRSCFDGWGGN, the amyloid nucleation score rises from 0.02 ± 0.49 to 2.19 ± 0.15.

First: RSLFKLTENCCIIVSWASDN
Second: STEAVMLQGVFHRSCCR
The amyloid nucleation score of the first is higher: 8.848 ± 0.057 for the first, 0.761 ± 0.46 for the second.

Compared with VNSNEVFIYPFTNLNFMML, IPCVMG is lower in amyloid nucleation score: 5.17 ± 0.087 for the first, 0.004 ± 0.65 for the second.

Compared with NLKMDLLRFLHMSLRYISTR, YFGGFAKRQSTLPATRKYRL is higher in amyloid nucleation score: -0.36 ± 0.64 for the first, 1.34 ± 0.52 for the second.

MFVWVQSRIGKGFGMGFRRW and KIVWCLVYNRDYYLQYRTIS are within error of each other in amyloid nucleation score: -0.307 ± 0.76 for the first, -0.625 ± 0.27 for the second.

Substance HTKMTIWNVVQC has an amyloid nucleation score of -0.517 ± 0.63.

With SFITCRFNRDCFLLQFSWYN the amyloid nucleation score was “inactive”.
For IHSEFHKSY, the amyloid nucleation score was “inactive”.
In the case of FVKYRSLGKWVLRVTGVMVD, the amyloid nucleation score is reported as “inactive”.
For FKDWNKWY, the amyloid nucleation score was “inactive”.
With VHLSLGGNIGLDGLQMVGVL the amyloid nucleation score was “inactive”.
With KRSKSR the amyloid nucleation score was “inactive”.
For SCFLSMYVISV, the amyloid nucleation score was “inactive”.
In the case of YWACDTFSILVLGNTVDSLD, the amyloid nucleation score is reported as “inactive”.
With VALHWNWDLFLYVRYFFDHT the amyloid nucleation score was “inactive”.
For RGYVRLSHTGTTRHHP, the amyloid nucleation score was “inactive”.
For RIWYY, the amyloid nucleation score was “inactive”.
In the case of KAIGCAIKTFRYIYWIIWLL, the amyloid nucleation score is reported as “inactive”.
With RILYLTTDGRKLM the amyloid nucleation score was “inactive”.
For LYFSSTYCLLVGKTDQIDCH, the amyloid nucleation score was “inactive”.
For LLRCSLHNKLTLSFDFAFVV, the amyloid nucleation score was “inactive”.
For VSLLFTPTNEYIWGTPLALR, the amyloid nucleation score was “inactive”.
